Patent US20240131162A1

Target: HER-2 (human) (UniProt P04626)
Experiment: SPR (BIAcore), HER-2 immobilised, antibody as analyte

koff: 6.3e-06 s⁻¹
kon: 110000 M⁻¹ s⁻¹
Substance: ch4D5 (antibody)
